Among the data in PMC11411725 are stoichiometry N values, retold here.

This assay deals with vCCI (viral CC chemokine inhibitor), wild type, from rabbitpox (rabbitpox), O10647. As to the kind of experiment: SEC-MALS. The settings on record: remark: other sources report otherwise. In general terms: In gel filtration, larger molecules generally elute earlier.

B1: CCL17 (CC chemokine ligand 17, TARC), wild type, Q92583 24-94 (ligand)
chain: ARGTNVGRECCLEYFKGAIPLRKLKTWYQTSEDCSRDAIVFVTVQGRAICSDPNNKRVKNAVKYLQSLERS
As to B1, the stoichiometry N (usually a count of units in the complex or per binding partner) is 1.
